We go through two molecules from PMC3843637 (Science signaling, 2013).

The labels stand for the following.
B1: S2LMH2EEE Y366A-W368A (domain or fragment)
chain: not shown
B2: MAN1 fragment from amino acids 755 to 911 (MAN1Luhm) (domain or fragment, human, UniProt Q9Y2U8 755-911, looked up)
chain: DKILVIPSKVWQGQAFHLDRRNSPPNSLTPCLKIRNMFDPVMEIGDQWHLAIQEAILEKCSDNDGIVHIAVDKNSREGCVYVKCLSPEYAGKAFKALHGSWFDGKLVTVKYLRLDRYHHRFPQALTSNTPLKPSNKHMNSMSHLRLRTGLTNSQGSS

The data set “SEC” concerns the molecule itself. In words: SEC.
The data set “S2LMH2EEE Y366A-W368A” addresses B1. The experiment in a line: ITC. On the technique in general: In ITC the heat of successive injections is recorded.
Data set [1] has as its target S2LMH2EEE/S4LMH2 heterotrimer (human, UniProt Q15796 186-467; Q13485 273-552, SSMS to EEME). The experiment in a line: ITC.
The target in the next data set is T1, PPM1A (human, UniProt P35813 1-382).
T1 sequence (looked up): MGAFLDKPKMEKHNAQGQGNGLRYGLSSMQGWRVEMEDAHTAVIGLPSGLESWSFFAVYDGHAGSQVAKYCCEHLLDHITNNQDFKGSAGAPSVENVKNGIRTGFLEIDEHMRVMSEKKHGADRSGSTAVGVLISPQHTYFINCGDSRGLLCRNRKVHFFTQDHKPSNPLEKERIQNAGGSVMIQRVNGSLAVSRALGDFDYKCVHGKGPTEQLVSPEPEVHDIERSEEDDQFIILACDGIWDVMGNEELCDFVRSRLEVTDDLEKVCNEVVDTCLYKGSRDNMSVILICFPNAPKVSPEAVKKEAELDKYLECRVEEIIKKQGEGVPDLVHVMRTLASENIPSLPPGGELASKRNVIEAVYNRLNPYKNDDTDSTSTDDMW
The experiment in a line: NMR titration.

“And” between values parts separate entries of the source, which are not always exact repeats. Equal values may be shown once.

For B1, the binding result in “SEC” is listed as “binds”.

Take B2: in the data set with S2LMH2EEE Y366A-W368A, the Kd (as a rule, a measure of binding affinity in units of concentration) is 37.9 µM and 33.9 µM; the dH was -1.6 kcal/mol and -1.4 kcal/mol. Moreover, in data set [1], the dissociation constant (Kd) is 1.25 µM and 1.3 µM; the dH was -8.4 kcal/mol. Further, the binding result with PPM1A was “binds”.
